Results reported in the nanobody polyreactivity screen of Harvey et al. (2022).

Experiment: yeast display, Sf9 membrane polyspecificity reagent, FACS + sequencing; frameworks hold sequencing errors
Outline: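 A synthetic nanobody library was expressed on Saccharomyces cerevisiae BJ5465 by galactose induction for 36–48 hours. The library was stained for 1 hour at 4 °C with 10% biotinylated, detergent-solubilized Sf9 membrane reagent and enriched with streptavidin microbeads before FACS. Low and high (top ~1%) gates were set on anti-HA fluorescence for expression and streptavidin fluorescence for reagent binding, and each polyreactivity label reflects the gate of origin.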

Sequence | polyreactivity (PSR sort gate)
QVQLVESGGCLVQARGSLRLSCAASGSTFGTYAMGWYRQPPGKERELVAAIRWSGVSTYYADSVKGRFTISRDNAKNTVYLEMNSLKPEDTAVYYCAVALWVRGTYIYEYWGQGSQVTVSS | high polyreactivity
QVQLVESGGGLVQAGGRLRLSCADSGFTFDANAMGWYRQAPGKEPELVAAISLSDGSTYYADSVKGRFTISRDNAKNTVYLQMNSLKPEDTAVYYCNAERFGSGLAWLLFDYWGQGTQVTVSS | low polyreactivity
QVQLVESGGGLVQAGGSLRLSCAASGITFSRYAMGWYRQAPGKERELVATITFSGTSTFYADSVKGRFTISRDNAKNRFYLQMNSLKPEDTAVYYCARLRFGSWSTYYYWGQGTQVTVSS | low polyreactivity
QVQLVESGGGLVQAGGSLRLSCAASGRTFRRYTMGWYRPAPGKERELVAAITTSGGSTYYADSVKGRFTLSRDNAKNTVYLQMNSLKPEDTAVYYCAATRRYSGDYWGQGTQVTVSS | high polyreactivity
QVQLVESGGGLVQAGGSLRLSCAASGYILWNAMGCYRQAPGKDRELVAAISSGGSTNYADSVKGRFTISRDNAKNTVYLQMNSLKPEDTAVYYCNTDRFWPSDYWGQGTQVTVSS | low polyreactivity
QVQLVESGGGLVQAGGSLRLSCAASGFIFQPYAMGWYRQAPGKERELVAAINFSGGSTYYADSVKGRFTISRDNAKNTVYLQMNSLKPEDTAVYYCARAGRYAAYSPFYYWGQGTQVTVSS | high polyreactivity
QVHLVESGGGLVQAGGSLRLSCAASGFIFKKYAMGWYRQAPGKERELVAAIDSSGSTTYADSVKGRFTISRDNAKNTVYLQMNSLKPEDTAVYYCAAPFTVYRHAPDMDYWGQGTQVTVSS | low polyreactivity
QVQLVESGGCLVQAGGSLRLSCAASGSIFHPYGMGWYRQAPGKERELVAAITSSGGDTYYADSVKGRFTISRDNAKNTVYLQMNSLKPEDTAVYYCAATGLPGYYAYDYWGQGTQVTVSS | low polyreactivity
QVQLVESGGGLVQAGGSLRLSCAASGRIFRKYAMGWYIQAPGKEREFVASIRSRGDSTYYADSVKGRFTISRDNAKNTVYLQMNSMKPEDTAVYYCAAVSGSGYDYWGQGTQVTVSS | high polyreactivity
QVQIVESGGGLVQAGGSLRLSCAASGRIFGFNAMAWYRQAPGKERELVAAISWSSGRTYYADSVKGRFTISRDNAKNTVYLQMNSLKPEDTAVYYCAADQWGGGDDYWGQGTQVTVSS | high polyreactivity
QVQLVESGGGLVQAGGSLRLSCAASGLTFELYAMGWYRQAPGKERELVAAITWSGGRTYYADSVKGRFTISRDNAKNTVYLQMNSLKPEDTAVYYCAADVYPGYVGSQEYDYWGQGTQVTVSS | low polyreactivity
QVQLVESGGGLVQAGGSLRLSCAASGRTFFKYAMGWYRQAPGKERELVAAITGRGGSTYADSVKGRFTISRDNAKNTVYLQMNSLKPEDTAVYYCAKVYQRGAQYYYYKYDYWGQGTQVTVSS | high polyreactivity
QVQLVESGGGLVQAGGSLRLSCAASGSTFPTYAMGWYRQAPGKERELVAAISRSGGRTYYADSVKGRFTISRDNAKNTVYLQMNSLKPEDTAVYYCAAQYRLSGGYNYDYWGQGTQVTVSS | high polyreactivity
QVQLVESGGGIVQAGGSLRLSCAASGFISYRNAMGWDRMAPGKERELVASITSSGGRTYYADSVKGRFTISRDNAKNTVYLQMNSLKPEDTAVYDWAADNWYKKQKRPSAYDYWGQGTQVSVSS | high polyreactivity
QVQLVESGGGLVQAGGSLRLSCAASGSIFSHYAMGWYRQAPGKERELVAAISRSGGSTYYADSVKGRFTISRDNAKNTVYLQMNSLKPEDTAVYYCAKEGDSGYWFDYWGQGTQVTVSS | low polyreactivity
QVQLVESGGGLVQAGGSLRLSSAASGRIFGFNAMGWYRPAPGKERELVAAITWGVGSTYYADSVKGRFTISRDNAKNTVYLQMNSLKPEDTAVYYCAAVSYAAVYGFDYWGQGTQVTVSS | high polyreactivity
QVQLVESVGGLVQAGGSLRLSCAASALTFQNNAMGWYRQAPGKEREFVATITSVGRTNYADSVKGRFTISRDNAKNTVYLQMNSLNPEDTAVYYCAASKARWPRGGSKYYYWGQGTQVTVSS | high polyreactivity
